Results taken from publication PMC4705477, “Biochemical Characterization of Nonamer Binding Domain of RAG1 Reveals its Thymine Preference with Respect to Length and Position”.

Key:
[1] = biological target: T1, NBD (nonamer binding domain of RAG1) (mouse, UniProt P15919 384-461); experiment: EMSA; 5 mM Ca2+; NBD EMSA: 10 mM Tris-HCl pH 7.5, 33 mM KCl, 5 mM CaCl2, 2 mM DTT, 0.1 mg/ml BSA, 6% glycerol, 15 min 30 C; cRAG EMSA: 22.5 mM MOPS-KOH pH 7.0, 20% DMSO, 2.2 mM; settings: protein: recombinant, tags: N-terminal His6 (pET28a)
T1 sequence: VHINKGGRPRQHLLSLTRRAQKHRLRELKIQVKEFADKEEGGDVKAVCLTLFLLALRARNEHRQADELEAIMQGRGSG

[2] = biological target: T1, NBD (nonamer binding domain of RAG1); experiment: EMSA; 5 mM Ca2+; no significant binding; NBD EMSA: 10 mM Tris-HCl pH 7.5, 33 mM KCl, 5 mM CaCl2, 2 mM DTT, 0.1 mg/ml BSA, 6% glycerol, 15 min 30 C; cRAG EMSA: 22.5 mM MOPS-KOH pH 7.0, 20% DMSO, 2.2 mM; settings: protein: recombinant; tags: N-terminal His6 (pET28a); label: 5' 32P on DR59; 6 nt T/T bubble, blunt ends
[3] = biological target: T2, MBP-cRAG1 (core RAG1);cRAG2 (core RAG2) (mouse?;mouse?, UniProt P15919;P21784 384-1040;1-383, |); experiment: EMSA; cRAG buffer; NBD EMSA: 10 mM Tris-HCl pH 7.5, 33 mM KCl, 5 mM CaCl2, 2 mM DTT, 0.1 mg/ml BSA, 6% glycerol, 15 min 30 C; cRAG EMSA: 22.5 mM MOPS-KOH pH 7.0, 20% DMSO, 2.2 mM; settings: protein: recombinant;recombinant, tags: MBP;MBP, chain copies: 2;2
T2 sequence 1: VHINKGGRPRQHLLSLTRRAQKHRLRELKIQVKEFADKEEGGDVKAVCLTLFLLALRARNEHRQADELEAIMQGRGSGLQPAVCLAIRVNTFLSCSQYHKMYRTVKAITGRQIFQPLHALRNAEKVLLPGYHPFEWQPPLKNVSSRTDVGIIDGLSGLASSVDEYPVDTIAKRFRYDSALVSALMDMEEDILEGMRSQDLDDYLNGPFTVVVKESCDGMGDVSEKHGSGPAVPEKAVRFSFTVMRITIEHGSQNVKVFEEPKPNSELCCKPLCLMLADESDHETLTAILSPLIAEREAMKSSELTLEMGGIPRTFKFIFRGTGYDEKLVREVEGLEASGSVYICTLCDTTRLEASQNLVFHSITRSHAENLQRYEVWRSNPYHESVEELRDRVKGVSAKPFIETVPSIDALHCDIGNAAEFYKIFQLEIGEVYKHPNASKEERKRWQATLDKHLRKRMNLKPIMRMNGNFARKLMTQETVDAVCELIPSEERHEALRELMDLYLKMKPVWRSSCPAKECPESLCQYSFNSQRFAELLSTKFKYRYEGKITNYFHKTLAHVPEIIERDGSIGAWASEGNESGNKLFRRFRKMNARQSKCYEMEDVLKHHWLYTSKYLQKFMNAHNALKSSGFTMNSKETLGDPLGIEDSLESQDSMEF
T2 sequence 2: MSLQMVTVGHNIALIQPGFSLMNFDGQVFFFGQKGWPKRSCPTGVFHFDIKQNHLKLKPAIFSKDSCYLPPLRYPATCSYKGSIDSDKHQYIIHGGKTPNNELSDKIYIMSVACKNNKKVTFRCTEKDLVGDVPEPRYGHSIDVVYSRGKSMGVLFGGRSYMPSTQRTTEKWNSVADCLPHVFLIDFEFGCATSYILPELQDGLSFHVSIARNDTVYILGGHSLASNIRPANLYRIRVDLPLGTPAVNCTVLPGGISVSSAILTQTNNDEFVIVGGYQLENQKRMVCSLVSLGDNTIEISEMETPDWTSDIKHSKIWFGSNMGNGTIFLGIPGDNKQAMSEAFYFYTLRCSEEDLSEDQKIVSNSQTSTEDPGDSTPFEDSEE

[4] = biological target: T1, NBD (nonamer binding domain of RAG1); experiment: BLI; 1x PBS, 30 C, 1:1 fit; NBD EMSA: 10 mM Tris-HCl pH 7.5, 33 mM KCl, 5 mM CaCl2, 2 mM DTT, 0.1 mg/ml BSA, 6% glycerol, 15 min 30 C; cRAG EMSA: 22.5 mM MOPS-KOH pH 7.0, 20% DMSO, 2.2 mM; settings: protein: recombinant; tags: N-terminal His6 (pET28a); label: 5' biotin
[5] = label: 5' 32P, 6 nt C/C bubble, blunt ends
[6] = label: 5' 32P, 6 nt T/T bubble, blunt ends
[7] = label: 5' 32P on NM32, 6 nt T/T bubble, blunt ends
[8] = label: 5' 32P, 6 nt G/G bubble, blunt ends, intermolecular G4 in K+ buffer
[9] = label: 5' 32P on AKN1, 5' overhang 1 nt at both ends
[10] = label: 5' 32P, 6 nt A/A bubble, blunt ends

GAGTCTGATCTTACCTCTTATTTTTTTTTTTTTTT (ssDNA) [XXIX, 15 T at 3' end (MS16)]
binding result ([1]; label: 5' 32P): binds

GAGTCTGATCTTACCTTTTTTTTTTTTTTTTTTTT (ssDNA) [XXX, 20 T at 3' end (MS18)]
binding result ([1]; label: 5' 32P): binds

B1: A/T 28 bp (MS101/DR41) (dsDNA)
DNA 1: TTTTTTTTTTTTTTTTTTTTTTTTTTTT
DNA 2: AAAAAAAAAAAAAAAAAAAAAAAAAAAA
binding result ([1]; label: 5' 32P, blunt): binds

B2: T/T bubble with scrambled nonamer (XXXVII, DR59/DR60) (dsDNA)
DNA 1: GACCTGAGGGCGAGCTTTTTTCGAGTAACTTAAGCGGAGGTCCTGCT
DNA 2: AGCAGGACCTCCGCTTAAGTTACTCGTTTTTTGCTCGCCCTCAGGTC
binding result [2]: no binding

TTTTTTTTTTTTTTTTTTTTTT (ssDNA) [poly T 22 (MS100)]
binding result ([1]; label: 5' 32P): no binding

B3: C/C bubble heteroduplex (AKN46/AKN20) (dsDNA)
DNA 1: GACCTGAGGGCGAGCCCCCCCCGAGTAACTTAACAG
DNA 2: CTGTTAAGTTACTCGCCCCCCGCTCGCCCTCAGGTC
binding result [3, 5]: binds
binding result [1, 5]: no binding

TTTTTTTTTTGAGTCGGATCTTACGTCGTAACTTCGCTAC (ssDNA) [XXXI, 10 T at 5' end (MS22)]
binding result ([1]; label: 5' 32P): binds

TTTTTTTTTTTTTTTTTTTTTTTTTTTT (ssDNA) [poly T 28 (MS101)]
binding result ([1]; label: 5' 32P): binds

B4: A/T 16 bp (MS102/DR39) (dsDNA)
DNA 1: TTTTTTTTTTTTTTTT
DNA 2: AAAAAAAAAAAAAAAA
binding result ([1]; label: 5' 32P, blunt): no binding

B5: T/T bubble heteroduplex (AKN11/SCR252) (dsDNA)
DNA 1: GACCTGAGGGCGAGCTTTTTTCGAGTAACTTAACAG
DNA 2: CTGTTAAGTTACTCGTTTTTTGCTCGCCCTCAGGTC
binding result [3, 6]: binds
binding result [1, 6]: no binding

B6: T/T bubble with nonamer (VII, NM32/NM33) (dsDNA)
DNA 1: GACCTGAGGGCGAGCTTTTTTCGAGTAACTTAAACAAAAACCCTGCT
DNA 2: AGCAGGGTTTTTGTTTAAGTTACTCGTTTTTTGCTCGCCCTCAGGTC
binding result [3, 7]: binds
binding result [1, 7]: binds

TTTTTTTTTT (ssDNA) [poly T 10 (MS103)]
binding result ([1]; label: 5' 32P): no binding

B7: G/G bubble heteroduplex (V, AKN47/AKN48) (dsDNA)
DNA 1: GACCTGAGGGCGAGCGGGGGGCGAGTAACTTAACAG
DNA 2: CTGTTAAGTTACTCGGGGGGGGCTCGCCCTCAGGTC
binding result [3, 8]: no binding
binding result [1, 8]: no binding

TTTTTTTTTTTTTTTT (ssDNA) [poly T 16 (MS102)]
binding result ([1]; label: 5' 32P): no binding

B8: random dsDNA MN37/MN38 (XV or XVI) (dsDNA)
DNA 1: CCTCTCCCCCTCCCCTCCCCTCCCTCGCGC
DNA 2: GCGCGAGGGAGGGGAGGGGAGGGGGAGAGG
binding result ([1]; label: 5' 32P on MN37, blunt): no binding

B9: random dsDNA MN45/MN46 (XV or XVI) (dsDNA)
DNA 1: AGAAGGGGGAGGGGAGGGAGAGAGGGGGCGCCG
DNA 2: CGGCGCCCCCTCTCTCCCTCCCCTCCCCCTTCT
binding result ([1]; label: 5' 32P on MN45, blunt): no binding

B10: 12RSS (I, AKN1/AKN2) (dsDNA)
DNA 1: GATCAGCTGATAGCTACCACAGTGCTACAGACTGGAACAAAAACCCTGCT
DNA 2: TAGCAGGGTTTTTGTTCCAGTCTGTAGCACTGTGGTAGCTATCAGCTGAT
binding result [3, 9]: binds
binding result [1, 9]: binds

GAGTCTGATCTTACCTCTTAACTTCGCTACTTTTT (ssDNA) [XXVII, 5 T at 3' end (MS12)]
binding result ([1]; label: 5' 32P): binds

GAGTCTGATCTTACCTCTTAACTTCTTTTTTTTTT (ssDNA) [XXVIII, 10 T at 3' end (MS14)]
binding result ([1]; label: 5' 32P): binds

TTTTTTTTTTTTTTTTTTTTTTTTTTTTTTTTTTT (ssDNA) [biotinylated poly T 35]
Kd [4]: 450 nM

TTTTTTTTTTTTTTTTTTTTTTTTTTTTTTTTTTT (ssDNA) [ss poly T 35 (MS3)]
binding result ([3]; label: 5' 32P): no binding

B11: A/T 22 bp (MS100/DR40) (dsDNA)
DNA 1: TTTTTTTTTTTTTTTTTTTTTT
DNA 2: AAAAAAAAAAAAAAAAAAAAAA
binding result ([1]; label: 5' 32P, blunt): no binding

B12: A/T 10 bp (MS103/DR38) (dsDNA)
DNA 1: TTTTTTTTTT
DNA 2: AAAAAAAAAA
binding result ([1]; label: 5' 32P, blunt): no binding

CTGTTAAGTTACTCGAAAAAAGCTCGCCCTCAGGTC (ssDNA) [XXXIII, ssDNA lacking T stretch]
binding result ([1]; label: 5' 32P): no binding

B13: A/A bubble heteroduplex (AKN18/AKN45) (dsDNA)
DNA 1: CTGTTAAGTTACTCGAAAAAAGCTCGCCCTCAGGTC
DNA 2: GACCTGAGGGCGAGCAAAAAACGAGTAACTTAACAG
binding result [3, 10]: no binding
binding result [1, 10]: no binding

B14: poly T 75 (MS6) (ssDNA)
DNA: TTTTTTTTTTTTTTTTTTTTTTTTTTTTTTTTTTTTTTTTTTTTTTTTTTTTTTTTTTTTTTTTTTTTTTTTTT
binding result ([1]; label: 5' 32P): binds
